Experimental data taken from patent publication US20120039802A1 (published 2012).

B1: 545-F04 peptide-displaying phage (SEQ ID NO: 402) (peptide)
peptide: GDHRKCEISAKTHEVTCYDNDP
B2: 552-F06 peptide-displaying phage (SEQ ID NO: 403) (peptide)
peptide: GDHLTCEFRDDGWKEHCWWSDP
B3: 531-E11 peptide-displaying phage (SEQ ID NO: 404) (peptide)
peptide: GDASMCYDGLALRWDQCWPHDP
B4: 525-A07 peptide-displaying phage (SEQ ID NO: 449) (peptide)
peptide: AQQASRFTFTDGDSYWWFEDF
B5: 528-F05 peptide-displaying phage (SEQ ID NO: 450) (peptide)
peptide: AQIQGIQKTEQGEFYWFNWFPA
B6: 524-E09 peptide-displaying phage (SEQ ID NO: 451) (peptide)
peptide: AQREVEEPYWYLDFLSSWRMHE
B7: 96-H12 peptide-displaying phage (SEQ ID NO: 452) (peptide)
peptide: AQRPEAHYKLAMSYPIIPRTKT
B8: 118-A08 peptide-displaying phage (SEQ ID NO: 453) (peptide)
peptide: AQRWSSPGMSQSFVLEWKWNDN
B9: 94-E08 peptide-displaying phage (SEQ ID NO: 454) (peptide)
peptide: AQYDTWVFQFIHEVPGELVAMQ
notes: also called linear isolate 94-E08
B10: 489-A04 peptide-displaying phage (SEQ ID NO: 015) (peptide)
peptide: AGLYLCDLSIMYCFFQGT
B11: 119-F06 peptide-displaying phage (SEQ ID NO: 455) (peptide)
peptide: AQMYQTPDGVIGKFVDWMFN
B12: 95-A11 peptide-displaying phage (SEQ ID NO: 456) (peptide)
peptide: AQVGSPMLPSWFSFEANWSS
B13: 94-H04 peptide-displaying phage (SEQ ID NO: 457) (peptide)
peptide: AQNAVVPPPMLWSIYWDYGREG
B14: 94-F07 peptide-displaying phage (SEQ ID NO: 458) (peptide)
peptide: AQPYYELQDADMLLVVALLSTG
B15: 103-G08 peptide-displaying phage (SEQ ID NO: 459) (peptide)
peptide: AQVGTAEAIMFSDVEDTGVHKF
B16: 465-A06 peptide-displaying phage (SEQ ID NO: 002) (peptide)
peptide: GSYYDCREFQCNKPAP
B17: 118-C07 peptide-displaying phage (SEQ ID NO: 460) (peptide)
peptide: AQFPLEFDVPNFSYHWLVSFNP

Each binder was assayed against T1, cMet-Fc fusion protein (extracellular domain of the cMet receptor expressed as an Fc-fusion protein) (human, UniProt P08581 25-932) (assay: phage ELISA, cMet-Fc vs TRAIL-Fc).
T1 construct: extracellular domain; also called soluble cMet-Fc-fusion protein; soluble cMet receptor; not shown: Fc part
T1 sequence (P08581 25-932): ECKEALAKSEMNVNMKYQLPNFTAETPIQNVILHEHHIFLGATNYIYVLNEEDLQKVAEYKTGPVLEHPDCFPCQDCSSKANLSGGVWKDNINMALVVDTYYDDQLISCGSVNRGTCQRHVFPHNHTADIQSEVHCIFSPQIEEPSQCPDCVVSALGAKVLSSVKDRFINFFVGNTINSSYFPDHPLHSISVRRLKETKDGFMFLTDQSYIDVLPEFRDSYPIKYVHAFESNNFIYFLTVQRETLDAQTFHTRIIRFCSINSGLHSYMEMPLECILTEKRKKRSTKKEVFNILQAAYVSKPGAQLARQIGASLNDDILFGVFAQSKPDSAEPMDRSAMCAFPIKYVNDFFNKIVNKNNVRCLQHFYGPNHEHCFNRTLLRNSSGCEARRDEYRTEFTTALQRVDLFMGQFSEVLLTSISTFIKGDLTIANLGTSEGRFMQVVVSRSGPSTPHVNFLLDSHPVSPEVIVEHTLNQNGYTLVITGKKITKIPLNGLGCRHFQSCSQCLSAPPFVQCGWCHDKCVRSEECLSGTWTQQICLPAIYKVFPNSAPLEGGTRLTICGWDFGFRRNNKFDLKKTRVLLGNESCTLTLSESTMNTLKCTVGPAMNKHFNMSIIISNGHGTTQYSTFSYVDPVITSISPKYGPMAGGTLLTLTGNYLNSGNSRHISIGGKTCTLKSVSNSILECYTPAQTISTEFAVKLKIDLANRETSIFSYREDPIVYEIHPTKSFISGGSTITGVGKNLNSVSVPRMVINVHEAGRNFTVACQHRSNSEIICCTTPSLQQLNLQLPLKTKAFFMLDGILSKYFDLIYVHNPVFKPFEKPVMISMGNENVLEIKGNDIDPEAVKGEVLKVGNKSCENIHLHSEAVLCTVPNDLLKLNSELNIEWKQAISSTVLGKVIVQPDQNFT
Method in brief: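 Specificity check: phage displaying peptides incubated 2 h at room temperature on wells coated with 0.5 μg/mL cMet-Fc versus TRAIL-Fc, after blocking with 3% BSA/PBST. HRP-anti-M13 antibody detected binding phage.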
In the case of B1, the “Protein ELISA (fold over background)” value is reported as 5.2 fold.
For B2, the “Protein ELISA (fold over background)” value was 11.1 fold.
In the case of B3, the “Protein ELISA (fold over background)” value is reported as 3.4 fold.
For B4, the “Protein ELISA (fold over background)” value was 7 fold.
In the case of B5, the “Protein ELISA (fold over background)” value is reported as 4.3 fold.
In the case of B6, the “Protein ELISA (fold over background)” value is reported as 8.2 fold.
For B7, the “Protein ELISA (fold over background)” value was 35.3 fold.
For B8, the “Protein ELISA (fold over background)” value was 11.3 fold.
In the case of B9, the “Protein ELISA (fold over background)” value is reported as 8.9 fold.
With B10 the “Protein ELISA (fold over background)” value was 4.3 fold.
For B11, the “Protein ELISA (fold over background)” value was 8 fold.
In the case of B12, the “Protein ELISA (fold over background)” value is reported as 7 fold.
In the case of B13, the “Protein ELISA (fold over background)” value is reported as 7 fold.
In the case of B14, the “Protein ELISA (fold over background)” value is reported as 6.1 fold.
B15 was tested, and the “Protein ELISA (fold over background)” value was 5.7 fold.
B16 was tested, and the “Protein ELISA (fold over background)” value was 4.4 fold.
With B17 the “Protein ELISA (fold over background)” value was 5.6 fold.

What follows are binders tested against T1, cMet-Fc fusion protein (extracellular …) (assay: phage ELISA on cMet-Fc, competitor HGF 500 ng/mL).
Method in brief: (§1)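 Plates coated with 0.5 μg/mL cMet-Fc, with TRAIL-Fc as background, then blocked with 3% BSA. Bound phage detected with HRP anti-M13 antibody.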
In the case of B1, the “% of binding in the absence of HGF” value is reported as 114%.
With B2 the “% of binding in the absence of HGF” value was 32%.
B3 was tested, and the “% of binding in the absence of HGF” value was 33%.
B4 was tested, and the “% of binding in the absence of HGF” value was 88%.
For B5, the “% of binding in the absence of HGF” value was 81%.
For B6, the “% of binding in the absence of HGF” value was 93%.
B7 was tested, and the “% of binding in the absence of HGF” value was 64%.
B8 was tested, and the “% of binding in the absence of HGF” value was 74%.
In the case of B9, the “% of binding in the absence of HGF” value is reported as 74%.
In the case of B10, the “% of binding in the absence of HGF” value is reported as 13%.
For B11, the “% of binding in the absence of HGF” value was 27%.
With B12 the “% of binding in the absence of HGF” value was 108%.
For B13, the “% of binding in the absence of HGF” value was 101%.
In the case of B14, the “% of binding in the absence of HGF” value is reported as 104%.
In the case of B15, the “% of binding in the absence of HGF” value is reported as 95%.
In the case of B16, the “% of binding in the absence of HGF” value is reported as 32%.
In the case of B17, the “% of binding in the absence of HGF” value is reported as 84%.

These binders were tested against T1, cMet-Fc fusion protein (extracellular …) (assay: phage ELISA on cMet-Fc, competitor HGF 100 ng/mL).
Method in brief: as §1
With B1 the “% of binding in the absence of HGF” value was 143%.
B2 was tested, and the “% of binding in the absence of HGF” value was 82%.
With B3 the “% of binding in the absence of HGF” value was 61%.
For B4, the “% of binding in the absence of HGF” value was 93%.
With B5 the “% of binding in the absence of HGF” value was 84%.
B6 was tested, and the “% of binding in the absence of HGF” value was 100%.
For B7, the “% of binding in the absence of HGF” value was 88%.
For B8, the “% of binding in the absence of HGF” value was 85%.
In the case of B9, the “% of binding in the absence of HGF” value is reported as 102%.
With B10 the “% of binding in the absence of HGF” value was 30%.
B11 was tested, and the “% of binding in the absence of HGF” value was 4%.
With B12 the “% of binding in the absence of HGF” value was 109%.
In the case of B13, the “% of binding in the absence of HGF” value is reported as 150%.
With B14 the “% of binding in the absence of HGF” value was 106%.
B15 was tested, and the “% of binding in the absence of HGF” value was 140%.
For B16, the “% of binding in the absence of HGF” value was 56%.
In the case of B17, the “% of binding in the absence of HGF” value is reported as 100%.

What follows are binders tested against T2, human cMet expressed on 3T3 cells (human, UniProt P08581 25-1390) (assay: whole cell phage ELISA, 3T3 human cMet vs 3T3).
T2 construct: whole, on cells; cells fixed with glutaraldehyde; also called cell surface-expressed human cMet; 3T3 cells that over-express human cMet
T2 sequence (P08581 25-1390): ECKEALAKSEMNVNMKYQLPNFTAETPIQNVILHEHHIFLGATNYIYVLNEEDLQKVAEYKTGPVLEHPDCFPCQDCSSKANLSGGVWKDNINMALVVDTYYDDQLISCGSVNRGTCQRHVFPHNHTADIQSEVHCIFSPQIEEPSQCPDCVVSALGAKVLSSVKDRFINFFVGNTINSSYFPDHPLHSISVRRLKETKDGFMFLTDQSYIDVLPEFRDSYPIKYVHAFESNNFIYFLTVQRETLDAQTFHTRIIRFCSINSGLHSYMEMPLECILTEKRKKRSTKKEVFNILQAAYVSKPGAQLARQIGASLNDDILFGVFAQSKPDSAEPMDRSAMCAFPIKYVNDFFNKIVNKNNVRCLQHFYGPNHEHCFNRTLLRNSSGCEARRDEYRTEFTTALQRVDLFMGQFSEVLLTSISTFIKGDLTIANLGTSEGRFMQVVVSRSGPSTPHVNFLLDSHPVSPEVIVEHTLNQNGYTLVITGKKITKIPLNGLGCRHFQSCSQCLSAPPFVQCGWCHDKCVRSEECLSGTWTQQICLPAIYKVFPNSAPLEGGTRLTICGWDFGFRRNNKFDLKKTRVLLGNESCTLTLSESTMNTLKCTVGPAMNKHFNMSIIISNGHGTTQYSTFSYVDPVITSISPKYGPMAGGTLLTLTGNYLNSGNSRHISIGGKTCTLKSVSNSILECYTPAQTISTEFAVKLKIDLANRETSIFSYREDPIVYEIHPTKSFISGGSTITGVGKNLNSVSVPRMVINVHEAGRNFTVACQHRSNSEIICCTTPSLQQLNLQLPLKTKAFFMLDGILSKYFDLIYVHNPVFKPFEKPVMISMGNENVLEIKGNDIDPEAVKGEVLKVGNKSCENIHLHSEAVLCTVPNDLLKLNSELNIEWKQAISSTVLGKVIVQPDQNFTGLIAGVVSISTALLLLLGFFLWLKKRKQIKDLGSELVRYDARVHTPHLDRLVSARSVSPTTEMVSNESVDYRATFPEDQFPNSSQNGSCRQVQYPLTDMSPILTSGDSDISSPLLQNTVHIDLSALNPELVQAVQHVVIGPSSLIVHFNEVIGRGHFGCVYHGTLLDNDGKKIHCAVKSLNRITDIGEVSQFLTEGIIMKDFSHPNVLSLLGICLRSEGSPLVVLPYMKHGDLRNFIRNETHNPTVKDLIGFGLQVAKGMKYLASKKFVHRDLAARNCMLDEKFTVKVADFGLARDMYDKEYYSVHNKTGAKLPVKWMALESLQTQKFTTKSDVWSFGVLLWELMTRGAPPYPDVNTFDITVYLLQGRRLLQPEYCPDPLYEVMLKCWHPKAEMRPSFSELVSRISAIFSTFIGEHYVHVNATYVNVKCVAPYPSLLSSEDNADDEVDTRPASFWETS
Method in brief: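 Bound phage was detected with an HRP-conjugated anti-M13 antibody after PBST washes. The cells were cMet-over-expressing 3T3, read against plain 3T3.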
For B1, the “WC ELISA (fold over background)” value was 1.17 fold.
In the case of B2, the “WC ELISA (fold over background)” value is reported as 1.23 fold.
For B3, the “WC ELISA (fold over background)” value was 1.3 fold.
B4 was tested, and the “WC ELISA (fold over background)” value was 1.17 fold.
In the case of B5, the “WC ELISA (fold over background)” value is reported as 1.1 fold.
In the case of B6, the “WC ELISA (fold over background)” value is reported as 1.33 fold.
In the case of B7, the “WC ELISA (fold over background)” value is reported as 1.37 fold.
For B8, the “WC ELISA (fold over background)” value was 1.3 fold.
B9 was tested, and the “WC ELISA (fold over background)” value was 1.23 fold.
For B10, the “WC ELISA (fold over background)” value was 1.33 fold.
In the case of B11, the “WC ELISA (fold over background)” value is reported as 1.33 fold.
B12 was tested, and the “WC ELISA (fold over background)” value was 1.3 fold.
With B13 the “WC ELISA (fold over background)” value was 1.37 fold.
In the case of B14, the “WC ELISA (fold over background)” value is reported as 1.2 fold.
B15 was tested, and the “WC ELISA (fold over background)” value was 1.33 fold.
For B16, the “WC ELISA (fold over background)” value was 1.33 fold.
With B17 the “WC ELISA (fold over background)” value was 1.27 fold.
